The text below walks through data of US20110207628A1.

The target of experiment [1] is tubby-N (N-terminus of mouse tubby, 1M-242P), GST-free (mouse) (UniProt P50586). The experiment in a line: clonal phage on immobilized tubby-N, plaque assay.
Experiment [2] concerns the target FLAG-tubby-F (full-length mouse tubby with N-terminal FLAG tag) (mouse) (UniProt P50586). The experiment is described as follows: clonal phage on immobilized FLAG-tubby-F, plaque assay.
For experiment [3], the target named is Axl-Fc (Axl extracellular domain fused to human IgG1 Fc fragment) (human). The experiment in a line: clonal phage on immobilized Axl-Fc, plaque assay.

Sequence of FLAG-tubby-F (full-length mouse tubby with N-terminal FLAG tag) (mouse) (P50586 other isoform, or with tags, fused parts or gaps): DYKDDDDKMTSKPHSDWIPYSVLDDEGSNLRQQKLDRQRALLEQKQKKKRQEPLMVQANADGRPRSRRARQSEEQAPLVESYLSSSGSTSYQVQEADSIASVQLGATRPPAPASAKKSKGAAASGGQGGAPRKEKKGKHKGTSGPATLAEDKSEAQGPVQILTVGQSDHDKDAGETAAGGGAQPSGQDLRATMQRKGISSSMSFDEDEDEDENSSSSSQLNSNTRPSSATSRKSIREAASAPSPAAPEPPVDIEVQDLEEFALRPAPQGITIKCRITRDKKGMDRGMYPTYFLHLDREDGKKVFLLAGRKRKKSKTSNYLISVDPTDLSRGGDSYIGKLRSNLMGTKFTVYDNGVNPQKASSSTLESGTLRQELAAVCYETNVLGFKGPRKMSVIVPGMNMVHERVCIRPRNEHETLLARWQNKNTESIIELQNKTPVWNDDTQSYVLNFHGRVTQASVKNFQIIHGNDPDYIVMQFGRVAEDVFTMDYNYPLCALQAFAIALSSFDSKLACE
Sequence of tubby-N (N-terminus of mouse tubby, 1M-242P), GST-free (mouse) (P50586 1-242): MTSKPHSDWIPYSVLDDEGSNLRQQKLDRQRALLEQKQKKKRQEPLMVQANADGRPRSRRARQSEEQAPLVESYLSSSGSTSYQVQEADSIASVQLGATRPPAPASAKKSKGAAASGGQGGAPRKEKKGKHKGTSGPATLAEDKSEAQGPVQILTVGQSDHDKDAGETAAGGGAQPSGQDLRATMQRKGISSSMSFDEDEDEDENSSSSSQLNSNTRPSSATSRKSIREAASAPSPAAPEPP

For “High mobility group box 2-like 1 (Hmgb211) 170K-305G, phage clone”, in experiment [1], the Binding to tubby-N (binding specificity of clonal phage vs. control phage) was 29.8 X (fold). Besides, the Binding to tubby-F (binding specificity to FLAG-tubby-F vs. to GFP-FLAG) in experiment [2] was 5 X (fold).
In the case of “PH180: Lectin, galactose binding, soluble 3 (Lgals3) 131Y-264I, phage clone (from UniProt P16110 131-264)”, the Binding activity (pfu ratio of clonal phage binding to immobilized Axl-Fc versus blank) in experiment [3] was 1380 X (fold).
In the case of “Paf1/RNA polymerase II complex component (Rtf1) 69N-186K, phage clone (from UniProt A2AQ19 69-186)”, the Binding to tubby-F (binding specificity to FLAG-tubby-F vs. to GFP-FLAG) in experiment [2] is 6.2 X (fold).
With “Unknown protein encoded by Chromosome X Genomic contig, alternate assembly (NW_001035178, 7824017-7824523 bp), phage clone”, the Binding to tubby-N (binding specificity of clonal phage vs. control phage) in experiment [1] is 40.1 X (fold). Moreover, the Binding to tubby-F (binding specificity to FLAG-tubby-F vs. to GFP-FLAG) in experiment [2] is 3.1 X (fold).
